B1: SR-F1 (SREC-I, SCARF1): N289Q (protein)
parent chain: MGLGLLLPLLLLWTRGTQGSELDPKGQHVCVASSPSAELQCCAGWRQKDQECTIPICEGPDACQKDEVCVKPGLCRCKPGFFGAHCSSRCPGQYWGPDCRESCPCHPHGQCEPATGACQCQADRWGARCEFPCACGPHGRCDPATGVCHCEPGWWSSTCRRPCQCNTAAARCEQATGACVCKPGWWGRRCSFRCNCHGSPCEQDSGRCACRPGWWGPECQQQCECVRGRCSAASGECTCPPGFRGARCELPCPAGSHGVQCAHSCGRCKHNEPCSPDTGSCESCEPGWNGTQCQQPCLPGTFGESCEQQCPHCRHGEACEPDTGHCQRCDPGWLGPRCEDPCPTGTFGEDCGSTCPTCVQGSCDTVTGDCVCSAGYWGPSCNASCPAGFHGNNCSVPCECPEGLCHPVSGSCQPGSGSRDTALIAGSLVPLLLLFLGLACCACCCWAPRSDLKDRPARDGATVSRMKLQVWGTLTSLGSTLPCRSLSSHKLPWVTVSHHDPEVPFNHSFIEPPSAGWATDDSFSSDPESGEADEVPAYCVPPQEGMVPVAQAGSSEASLAAGAFPPPEDASTPFAIPRTSSLARAKRPSVSFAEGTKFAPQSRRSSGELSSPLRKPKRLSRGAQSGPEGREAEESTGPEEAEAPESFPAAASPGDSATGHRRPPLGGRTVAEHVEAIEGSVQESSGPVTTIYMLAGKPRGSEGPVRSVFRHFGSFQKGQAEAKVKRAIPKPPRQALNRKKGSPGLASGSVGQSPNSAPKAGLPGATGPMAVRPEEAVRGLGAGTESSRRAQEPVSGCGSPEQDPQKQAEEERQEEPEYENVVPISRPPEP
B2: SR-F1 (SREC-I, SCARF1): N382Q (protein)
parent chain: B1 parent chain
B3: SR-F1 (SREC-I, SCARF1): N393Q (protein)
parent chain: B1 parent chain

Columns and labels:
Conditions in all cases: glycan lost; control: wild-type SR-F1(20-421)
[1] = Ni-NTA purified yield from 293-F supernatant
[2] = MALDI-TOF mass, SDS-PAGE, N-terminal sequencing
[3] = limited tryptic and chymotryptic proteolysis, SDS-PAGE

Protein	expression_or_secretion, other: protein purified per 100 ml supernatant [1]	other: proteolytic processing [2]	structure_or_conformation [3]
B1	decreases, 70 vs 450	increases, extra loss of 2.3–2.6 kDa compared with the N382Q and N393Q mutants	no change
B2	decreases, 85 vs 450	–	no change
B3	decreases, 200 vs 450	–	no change
